For one substance, concentration and fold greater binding affinity than mICOS-mIgG2am binding to GL50 on WEHI cells results are on record in patent US20040054158A1.

Where only a bound is given, the exact number is not on record here.

For experiment [1], the target named is B7 molecules on WEHI 231 cells (B7-1 and B7-2). Nature of the experiment: flow cytometry, titered staining of WEHI 231 cells.
Experiment [2] has the same target. Nature of the experiment: flow cytometry, titered staining of WEHI 231 cells; estimate from detectable concentrations.

Sequence of mCTLA4-mIgG2am (P09793 36-161): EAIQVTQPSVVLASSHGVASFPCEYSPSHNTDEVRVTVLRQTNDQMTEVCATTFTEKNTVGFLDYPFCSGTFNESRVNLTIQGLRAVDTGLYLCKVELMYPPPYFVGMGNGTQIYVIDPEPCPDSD

In experiment [1], “mCTLA4-mIgG2am (from UniProt P09793 36-161) (Fc fusion)” gave a concentration at which staining was clearly detectable of 8 ng/mL. In addition, the fold greater binding affinity than mICOS-mIgG2am binding to GL50 on WEHI cells in experiment [2] was above 100 fold.
